Consider three molecules from patent publication US20120090043A1, “TARGETS FOR RETROVIRUS ASSOCIATED DISEASES” (priority 2009, published 2012).

Test [1] deals with HTLV-1 LTR promoter transactivation by HTLV-1 Tax. Put plainly: Transactivation assay, HTLV-1 LTR luciferase reporter with HTLV-1 Tax. The class given is cell-based. The settings on record: HEK293 cells co-transfected with pHTLV1LTR-Luc, HTLV-1 Tax and the human ORF; relative luciferase activity 24 h post-transfection; positive if >=2 or <=0.5 and p<0.05.
Test [2] concerns HIV-1 LTR promoter transactivation by HIV-1 Tat. Put plainly: Transactivation assay, HIV-1 LTR luciferase reporter with HIV-1 Tat. The settings on record: HEK293 cells co-transfected with pHIV1LTR-Luc, HIV-1 Tat and the human ORF; relative luciferase activity 24 h post-transfection; positive if >=2 or <=0.5 and p<0.05. It counts as cell-based. The procedure, abridged: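 HEK293 cells (10^4) were calcium-phosphate co-transfected with the HIV-1 LTR-luciferase reporter plus HIV-1 Tat, or the HTLV-1 LTR-luciferase reporter plus HTLV-1 Tax, each with a human ORF expression plasmid. A hit required relative activity ≥2 or ≤0.5 with paired t-test p<0.05.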

B1: LNX2: human host interactor protein, Gene ID 222484, expressed from transfected ORF vector (protein)
chain: MGTTSDEMVSVEQTSSSSLNPLCFECGQQHWTRENHLYNYQNEVDDDLVCHICLQPLLQPLDTPCGHTFCYKCLRNFLQEKDFCPLDRKRLHFKLCKKSSILVHKLLDKLLVLCPFSSVCKDVMQRCDLEAHLKNRCPGASHRRVALERRKTSRTQAEIENENGPTLLDPAGTLSPEADCLGTGAVPVERHLTSASLSTWSEEPGLDNPAFEESAGADTTQQPLSLPEGEITTIEIHRSNPYIQLGISIVGGNETPLINIVIQEVYRDGVIARDGRLLAGDQILQVNNYNISNVSHNYARAVLSQPCNTLHLTVLRERRFGNRAHNHSDSNSPREEIFQVALHKRDSGEQLGIKLVRRTDEPGVFILDLLEGGLAAQDGRLSSNDRVLAINGHDLKYGTPELAAQIIQASGERVNLTIARPGKPQPGNTIREAGNHSSSSQHHTPPPYYSRPSSHKDLTQCVTCQEKHITVKKEPHESLGMTVAGGRGSKSGELPIFVTSVPPHGCLARDGRIKRGDVLLNINGIDLTNLSHSEAVAMLKASAASPAVALKALEVQIVEEATQNAEEQPSTFSENEYDASWSPSWVMWLGLPSTLHSCHDIVLRRSYLGSWGFSIVGGYEENHTNQPFFIKTIVLGTPAYYDGRLKCGDMIVAVNGLSTVGMSHSALVPMLKEQRNKVTLTVICWPGSLV
Regarding B1, in test [1], the HTLV_LTR transactiv. was 0.28 fold change. For the same molecule, the HIV_LTR transactiv. in test [2] is 0.26 fold change.

B2: KRT8: human host interactor protein, Gene ID 3856, expressed from transfected ORF vector (protein)
chain: MSIRVTQKSYKVSTSGPRAFSSRSYTSGPGSRISSSSFSRVGSSNFRGGLGGGYGGASGMGGITAVTVNQSLLSPLVLEVDPNIQAVRTQEKEQIKTLNNKFASFIDKVRFLEQQNKMLETKWSLLQQQKTARSNMDNMFESYINNLRRQLETLGQEKLKLEAELGNMQGLVEDFKNKYEDEINKRTEMENEFVLIKKDVDEAYMNKVELESRLEGLTDEINFLRQLYEEEIRELQSQISDTSVVLSMDNSRSLDMDSIIAEVKAQYEDIANRSRAEAESMYQIKYEELQSLAGKHGDDLRRTKTEISEMNRNISRLQAEIEGLKGQRASLEAAIADAEQRGELAIKDANAKLSELEAALQRAKQDMARQLREYQELMNVKLALDIEIATYRKLLEGEESRLESGMQNMSIHTKTTSGYAGGLSSAYGGLTSPGLSYSLGSSFGSGAGSSSFSRTSSSRAVVVKKIETRDGKLVSESSDVLPK
In turn, B2 displayed an HTLV_LTR transactiv. in test [1] of 0.24 fold change. The molecule also came in with an HIV_LTR transactiv. in test [2] of 0.19 fold change.

B3: LZTS2: human host interactor protein, Gene ID 84445, expressed from transfected ORF vector (protein)
chain: MAIVQTLPVPLEPAPEAATAPQAPVMGSVSSLISGRPCPGGPAPPRHHGPPGPTFFRQQDGLLRGGYEAQEPLCPAVPPRKAVPVTSFTYINEDFRTESPPSPSSDVEDAREQRAHNAHLRGPPPKLIPVSGKLEKNMEKILIRPTAFKPVLPKPRGAPSLPSFMGPRATGLSGSQGSLTQLFGGPASSSSSSSSSSAADKPLAFSGWASGCPSGTLSDSGRNSLSSLPTYSTGGAEPTTSSPGGHLPSHGSGRGALPGPARGVPTGPSHSDSGRSSSSKSTGSLGGRVAGGLLGSGTRASPDSSSCGERSPPPPPPPPSDEALLHCVLEGKLRDREAELQQLRDSLDENEATMCQAYEERQRHWQREREALREDCAAQAQRAQRAQQLLQLQVFQLQQEKRQLQDDFAQLLQEREQLERRCATLEREQRELGPRLEETKWEVCQKSGEISLLKQQLKESQAELVQKGSELVALRVALREARATLRVSEGRARGLQEAARARELELEACSQELQRHRQEAEQLREKAGQLDAEAAGLREPPVPPATADPFLLAESDEAKVQRAAAGVGGSLRAQVERLRVELQRERRRGEEQRDSFEGERLAWQAEKEQVIRYQKQLQHNYIQMYRRNRQLEQELQQLSLELEARELADLGLAEQAPCICLEEITATEI
With B3, the HTLV_LTR transactiv. in test [1] came out at 0.23 fold change. In test [2], the HIV_LTR transactiv. was 0.49 fold change.
